Source: patent publication US20200057058A1 (MIT, published 2020)

Experiments:
streptavidin [1] = biological target: T1, streptavidin (UniProt P22629 37-163, limits assumed); experiment: fluorescent binding curve, labeled SA in 50% urine, 4 h; quadratic fit
T1 construct: It was used without a stated label in the sandwich assays; also called SA

streptavidin [2] = biological target: T1, streptavidin; experiment: sandwich assay: SA in 50% blood serum, biotin-HRP/TMB detection
Description: Each well was submerged in 1 mL of 1% BSA in Milli-Q water, and the 12-well plate was incubated at 37° C. for 30 minutes. The wells were rinsed twice by adding 2 mL of Milli-Q water and gently shaking the well plate at 70 rpm for 5 minutes. 1 mL of streptavidin diluted in PBS, urine, or blood serum (prepared as described in the Fluorescent Assays section) containing 0.1% BSA was then added to each well, and the well plate was shaken at 70 rpm for 4 hours at room temperature. Wells were rinsed twice with 2 mL of Milli-Q water then twice with 2 mL of 0.1% BSA in Milli-Q water by shaking at 70 rpm for 5 minutes. After rinsing, wells were submerged in 1 mL of 200 ng/mL biotin-HRP in Milli-Q water containing 0.1% BSA, and the well plate was shaken at 70 rpm for 1 hour at room temperature. Wells were then rinsed with water and 0.1% BSA as described previously. 1 mL of solution from a Pierce TMB substrate kit (Thermo Fisher Scientific) was added to each well, and the well plate was shaken vigorously at 125 rpm for 15 minutes at room temperature. 1 mL of 2M H2SO4 was added to each well, and the absorbance at 450 nm was read using a Tecan Infinite M200 PRO plate reader.
The general procedure for this proof-of-concept experiment is diagrammed in FIG. 28. Films were first exposed to SA solutions and rinsed to remove unbound analyte. Taking advantage of the strong interaction between SA and biotin, thin films were then submerged in a solution of biotinylated horseradish peroxidase (biotin-HRP). Bound SA was detected colorimetrically through the HRP-mediated oxidation of 3,3′,5,5′-tetramethylbenzidine (TMB). Attempts to perform this assay using mSA2 as the analyte were unsuccessful, even when run on an rcSso7d.SA monolayer.

[3] = biological target: monomeric streptavidin variant mSA2; experiment: fluorescent binding curves, labeled mSA2 in 50% urine or 50% blood serum, 4 h
[4] = biological target: monomeric streptavidin variant mSA2; experiment: fluorescent binding curve, labeled mSA2 in 50% blood serum, 4 h; quadratic fit
[5] = biological target: monomeric streptavidin variant mSA2; experiment: fluorescent binding assay, labeled mSA2; signal three standard deviations above blank
Description: The binding function of rcSso7d.SA oligomer-PNIPAM thin films was measured using fluorescently-labeled monomeric streptavidin (mSA2) and fluorescently-labeled streptavidin (SA). Details for the expression, purification, and fluorescent labeling of mSA2 are provided below. Samples were prepared by serial dilution of SA or mSA2 in PBS (pH 7.4), human urine (diluted to 50% v/v in PBS, pH 7.4), or blood serum (obtained as the supernatant by centrifuging whole blood at 1500×g for 10 minutes, then diluted to 50% v/v in PBS, pH 7.4). 0.5 μL drops of solutions containing serially diluted fluorescent mSA2 and fluorescent SA samples in PBS (pH 7.4) were gently applied to the surface of each bioconjugate thin film. Films were incubated in a sealed chamber saturated with water vapor at room temperature to prevent to prevent drying of the applied fluorescent samples. After 1 hour, films were thoroughly rinsed with water for 10 seconds (a time determined to be sufficient to remove unbound molecules from the film, see FIG. 33, dried under filtered airflow, and immediately analyzed for fluorescent signal. Fluorescence microscopy images were acquired at 4× magnification using a Cy5 filter set and exposure time of 5000 ms on an Olympus IX-81 inverted fluorescence microscope with an AxioCam HRC CCD camera. Fluorescent intensity was calculated using ImageJ software⁶⁷ by determining the average fluorescent signal in a rectangular area of the fluorescent image free of defects and occupying no less than half of the full sample application area.
Oligomerization of rcSso7d.SA also brings about a decrease in biosensor limit of detection (LOD). […] While all thin films display improvements up to threefold in LOD over the monolayer, the trend in LOD with respect to degree of oligomerization is non-monotonic. The primary factor that is expected to affect LOD in the studied biosensors is number of binding sites, as more binding sites enable a greater number of analyte molecules to be captured and shifts analyte-receptor equilibrium in favor of binding events.

[6] = biological target: monomeric streptavidin variant mSA2; experiment: fluorescent binding assay, labeled mSA2 in PBS on the monolayer, 4 h exposure
streptavidin [7] = biological target: T1, streptavidin; experiment: apparent Kd (Kd,app); fluorescent binding curve, labeled SA in 50% urine, 4 h; quadratic fit
streptavidin [8] = biological target: T1, streptavidin; experiment: apparent Kd (Kd,app); fluorescent binding curve, labeled SA in PBS, 4 h exposure; quadratic fit

T1 sequence (P22629 37-163 limits assumed): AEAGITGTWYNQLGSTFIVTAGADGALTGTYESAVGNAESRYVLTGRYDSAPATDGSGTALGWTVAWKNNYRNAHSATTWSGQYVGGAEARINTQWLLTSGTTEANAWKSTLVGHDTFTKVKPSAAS

B1: rcSso7d.SA monolayer (designed binder)
chain: MGSIHHHHHHSSGLVPRGSHMCATVKFTYQGEEKQVDISKIKIVARDGQYIDFKYDEGGGAYGYGWVSEKDAPKELLQMLEKQ
modifications: EDC/NHS-activated protein coupled to an amine-functionalized silicon wafer
notes: also called monomeric rcSso7d.SA; surface-immobilized rcSso7d.SA
With B1 the “[P]T (total concentration of binding sites)” value (streptavidin [1]) was 0.29 nM, the LOD (streptavidin [2]) was 40 nM and the “sensitivity in the fluids relative to buffer” value [3] was ≤ 10 fold. For the same binder, the “[P]T (total concentration of binding sites)” value [4] was 0.4 nM, the “limit of detection (LOD)” value [5] was 360 nM and the “EC50 (read off the curve)” value [6] was ~3 µM. It also gave a Kd (streptavidin [7]) of 47 µM and a Kd (streptavidin [8]) of 8 µM.
